In test [1] the target is PGAM5 residues 81–289 (human) (UniProt Q96HS1). In words: AUC; sedimentation velocity, 4°C, 45,000 rpm, protein 50-60 μM in 50 mM Tris pH 7.5, 300 mM NaCl, 0.5 mM TCEP.
Test [2] addresses ΔN54-PGAM5, His6 tag cleaved (human) (UniProt Q96HS1). In words: crystal structure; ΔN54-PGAM5-phosphate complex; sitting drop, 20°C, 18% PEG 3350, 0.1 M MES pH 5.7.
Test [3] addresses ΔN90-PGAM5 (residues 90–289), His6 tag cleaved (human) (UniProt Q96HS1). Briefly: AUC; sedimentation velocity, 4°C, 45,000 rpm, protein 50-60 μM in 50 mM Tris pH 7.5, 300 mM NaCl, 0.5 mM TCEP.
For test [4] the target is unchanged. Briefly: crystal structure; ΔN90-PGAM5 apo and phosphate complex; sitting drop, 20°C, PEG 3350 and 5000 MME 12-20%, 0.1 M HEPES pH 7.5.
The target is the same in test [5]. In words: AUC; sedimentation equilibrium, dimer to monomers (self-association model, global fit); 0.7, 0.46 and 0.35 mg/ml in 50 mM HEPES pH 7.5, 300 mM NaCl, 0.5 mM TCEP; 12,000 and 18,000 rpm.
The target of test [6] is ΔN90-PGAM5, His6 tag not cleaved (for analytical SEC) (human) (UniProt Q96HS1). In words: SEC; Superdex Increase s200 10/300 GL, 50 mM Tris pH 7.5, 200 mM NaCl; His-tagged proteins at several concentrations. In general terms: Size exclusion chromatography separates by hydrodynamic size, large species first.

The stoichiometry N is the number of molecules, sites or subunits per partner or assembly. A word on the Kd: it is the equilibrium constant for the complex coming apart. Read a low Kd as a tighter complex.

In the case of “PGAM5 residues 81–289 (from UniProt Q96HS1 81-289) (domain or fragment)”, in test [1], the stoichiometry N turned out to be 2.
In turn, “ΔN54-PGAM5, His6 tag cleaved (from UniProt Q96HS1 54-289) (domain or fragment)” gave a stoichiometry N in test [2] of 12.
As for “ΔN90-PGAM5 (residues 90–289), His6 tag cleaved (from UniProt Q96HS1 90-289) (domain or fragment)”, the stoichiometry N in test [3] and in test [4] was 2 throughout. The dissociation constant (Kd) in test [5] stood at 480 nM.
In test [6], “ΔN90-PGAM5, His6 tag not cleaved (for analytical SEC) (from UniProt Q96HS1 90-289) (domain or fragment)” came in with a stoichiometry N of 2.

For the origin of these results see PMC5501728.
